Target: T1, hepatocyte nuclear factor 4α (HNF4α) (human (endogenous in HepG2), UniProt P41235 1-474)
T1 sequence (looked up): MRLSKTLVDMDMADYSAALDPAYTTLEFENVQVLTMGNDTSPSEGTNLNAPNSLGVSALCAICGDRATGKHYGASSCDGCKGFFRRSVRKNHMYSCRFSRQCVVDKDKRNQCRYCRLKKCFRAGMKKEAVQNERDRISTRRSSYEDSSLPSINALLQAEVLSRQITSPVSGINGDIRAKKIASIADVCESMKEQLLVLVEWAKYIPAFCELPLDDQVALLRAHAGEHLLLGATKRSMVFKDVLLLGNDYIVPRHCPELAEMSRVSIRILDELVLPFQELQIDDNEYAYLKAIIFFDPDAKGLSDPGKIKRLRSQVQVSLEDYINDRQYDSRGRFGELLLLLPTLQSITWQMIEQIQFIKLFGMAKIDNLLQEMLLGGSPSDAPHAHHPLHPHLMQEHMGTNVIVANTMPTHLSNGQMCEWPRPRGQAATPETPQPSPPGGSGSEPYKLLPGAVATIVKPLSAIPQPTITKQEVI
Assay: cell-based or functional assay

B1: lipin 1β (924 amino acid form of mouse lipin 1), HA-tagged (natural protein, UniProt Q91ZP3 1-924, looked up)
chain: MNYVGQLAGQVFVTVKELYKGLNPATLSGCIDIIVIRQPNGSLQCSPFHVRFGKMGVLRSREKVVDIEINGESVDLHMKLGDNGEAFFVQETDNDQEIIPMYLATSPILSEGAARMESQLKRNSVDRIRCLDPTTAAQGLPPSDTPSTGSLGKKRRKRRRKAQLDNLKRDDNVNSSEDEDMFPIEMSSDEDTAPMDGSRTLPNDVPPFQDDIPKENFPSISTHPQSASYPSSDREWSPSPSSLVDCQRTPPHLAEGVLSSSCPLQSCHFHASESPSGSRPSTPKSDSELVSKSADRLTPKNNLEMLWLWGELPQAAKSSSPHKMKESSPLGSRKTPDKMNFQAIHSESSDTFSDQSPTMARGLLIHQSKAQTEMQFVNEEDLESLGAAAPPSPVAEELKAPYPNTAQSSSKTDSPSRKKDKRSRHLGADGVYLDDLTDMDPEVAALYFPKNGDPGGLPKQASDNGARSANQSPQSVGGSGIDSGVESTSDSLRDLPSIAISLCGGLSDHREITKDAFLEQAVSYQQFADNPAIIDDPNLVVKVGNKYYNWTTAAPLLLAMQAFQKPLPKATVESIMRDKMPKKGGRWWFSWRGRNATIKEESKPEQCLTGKGHNTGEQPAQLGLATRIKHESSSSDEEHAAAKPSGSSHLSLLSNVSYKKTLRLTSEQLKSLKLKNGPNDVVFSVTTQYQGTCRCEGTIYLWNWDDKVIISDIDGTITRSDTLGHILPTLGKDWTHQGIAKLYHKVSQNGYKFLYCSARAIGMADMTRGYLHWVNERGTVLPQGPLLLSPSSLFSALHREVIEKKPEKFKVQCLTDIKNLFFPNTEPFYAAFGNRPADVYSYKQVGVSLNRIFTVNPKGELVQEHAKTNISSYVRLCEVVDHVFPLLKRSHSCDFPCSDTFSNFTFWREPLPPFENQDMHSASA
B1 was tested, and the “activity of a Gal4-HNF4α fusion on the UAS-TKLuc luciferase reporter in HepG2 cells with lipin 1 overexpression” value was greater than 3 fold.

Reference: paper PMC3517414, “Complex Interplay between the Lipin 1 and the Hepatocyte Nuclear Factor 4 α (HNF4α) Pathways to Regulate Liver Lipid Metabolism” (PLoS ONE, 2012)
